From the supplement of paper PMC9170038

Tested on: MS2 coat protein
Assay: apparent KD of MS2 coat protein; higher = weaker reporter binding
Settings: Eterna round: R107
Description: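 RNA-MaP round R107: designed RNA switches with theophylline, tryptophan, arginine or FMN aptamers are transcribed on-chip within common flanks. They are titrated with SNAP-549-labelled MS2 coat protein in RNA-MaP buffer (100 mM Tris pH 7.5, 80 mM KCl, 4 mM MgCl2), without ligand or with the indicated ligand. Median apparent KD per design.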

[1] = input ligand: theophylline 20 uM
[2] = input ligand: theophylline 2 mM
[3] = input ligand: tryptophan 2.4 mM

| Sequence | apparent KD of MS2 coat protein (input ligand: arginine 13.2 mM) | apparent KD of MS2 coat protein [1] | apparent KD of MS2 coat protein [2] | apparent KD of MS2 coat protein (input ligand: none) | apparent KD of MS2 coat protein [3] |
| --- | --- | --- | --- | --- | --- |
| CUUGGCUGUGCGGCCGCCACUGACUCAUCCUGCAUUACAUGAGGAUCACCCAUGUUGCGGCCUCCCAGGACCGGGCAUAGCCUGC [Veered] | 102 nM | 397 nM | 673 nM |  |  |
| GUGUUAUGCUCGGCCGCCACUCUGACAUGAGGAUCACCCAUGUUGUACAUGAGGAUCACCCAUGUGAGGACCGGGAGAAACACGA [Exclusion Tryptophan B GF9] | 191 nM | 191 nM | 209 nM | 193 nM | 274 nM |
| ACGUAUGUCAGAAGGAGCGUCAAUAACAUGAGGAUCACCCAUGUAUUACAUAGGUAUAAUAGACAGGUAGGUCGCUGAAUUCGAA [JR_SSArginiB_Sub022] | 22.4 nM | 46.4 nM | 31.2 nM | 29.2 nM | 27 nM |
| ACGACGGCUGCGGCCGCCACUGUACAUGAGGAUCACCCAUGUGUAGUAAUUGGGACCCUGUGUUACAGGACCGGGUAGUUGAUUA [Orquteer] | 23.3 nM | 49 nM | 47.1 nM |  |  |
| AAGACAUGAGGAUCACCCAUGUGGAGGGAUACCAGCCUGUGUGUGGGCCCUUGGCAGCUUAAAUUUAAUUUAAUUAAAUAAAUUU [Same State - Theophylline A] | 27.6 nM | 41.6 nM |  |  | 34.9 nM |
| GGGUGGUAGGCGGCCGCCACUGAUUUUUAUUUAUAGAUGACAUGAGGAUCACCCAUGUUUAUAUGCAGGACCGGGCCUGUUGUGG [aaaQ] | 12 nM | 22.5 nM | 17.6 nM |  |  |
| GGGUGUGAUCCGGAUACCAGCGAACAUGAGGAUCACCCAUGUGACCUGAGAUCGGCUCUACGCCCUUGGCAGCCGCGAUCGCAGG [Same State Theophylline B GF12] |  | 105 nM | 37.9 nM | 18.8 nM | 13.1 nM |
| UCAUAUUAGUGAGAUGUAAGGUAUCAUGAUACCAGUAGAUAAUUAUACCCUUGGCAGCAUAACAUGAGGAUCACCCAUGUACAUG [Ab] | 23.1 nM | 21.3 nM |  |  | 19.8 nM |
| GGAUAGGACACGGCCGCCACUACCUAGGAUACUAGCAACAUUUGGGUACACGAGGAUCACCCGUGUAGGACCGGGUGUCCUAUCG | 32.6 nM | 18.1 nM | 13.6 nM | 10.7 nM | 19.2 nM |
| UGUUUGGUGCGCGAGUGUUGGAUAAUUGAUACCAGUGUAGAUGUGCGCCCUUGGCAGCGAAUCCGAACAUGAGGAUCACCCAUGU [5.Z] | 41.2 nM | 32.3 nM | 35.7 nM | 27.1 nM | 29.5 nM |
| UAUCCACAUGAGGAUCACCCAUGUUAGGAAGGAGCGGUGAAUGCACCAGGUAGGUCGCCUAGCUGAGGACUGUCGAUGGAUUCGU [Exclusion - Arginine A (Freestyle 18)] | 23.3 nM | 30.8 nM | 39.6 nM | 23.9 nM | 26 nM |
| CAAAGUUCGUCUCUGGUCCUCUAAUCGGCUCGAGGACCGGUACGGCCGCCACUCGCCCGACAUGAGGAUCACCCAUGUCUGUAAA [Dilaanis] | 15.5 nM | 23 nM | 16.8 nM |  |  |
| GGCGUGGUCGGAAGGAGCGACAUGAGGAUCACCCAUGUCUCCCGUUAUGGGAGUUCCUUAGGUCAGGUAGGUCGCCGACUGCGGC [#1 Exclusion - Arginine B Attempt #22 (Inspired by Omei)] | 41.6 nM | 123 nM | 326 nM | 231 nM | 159 nM |
| GGAGGCCUUAGGGAUACCAGCUAAGUUGAGUACAUGAGGAUCACCCAUGUGUUCCCAGAGAGCCCUUGGCAGCCCUCAUCCGUUC [theeternabot_sameState_MS2_Theo_B_7] | 14.5 nM | 13.9 nM |  |  | 12.4 nM |
| CCGUUUUAUGGCGACAUAGGGCGGACUGAAGGAGCGGUAUAAUAGCCAGGUAGGUCGCAGAGAUCCACAUGAGGAUCACCCAUGU [!0.aB] | 73.9 nM | 51.5 nM | 42.9 nM | 34.3 nM | 34.3 nM |
| UAACAUGAGGAUCACCCAUGUAUACUAAGUCGAGGACCGGUACGGCCGCCACUCGAACUUCAAGAAUAGGCGGUAAAUGUAAGUA [JR_ExcTryptoA_Sub020] | 11.8 nM | 16.5 nM | 14 nM |  |  |
| AGGACGGCCGGAAGGAGCGGUACAUGAGGAUCACCCAUGUACCUCUGGGCAUCCGUAGUGUGCCAGGUAGGUCGCCGGUUGCGGG [Veatgema] | 11.1 nM | 14.5 nM | 12.1 nM | 9.88 nM | 10.8 nM |
| GAAGGAACCGGAAGGAGCGGGUCCUUAGCCACUACAUGAGGAUCACCCAUGUCCGGGAGGUCCCAGGUAGGUCGCCGGUCUUAAA [Gelece] | 63.9 nM | 324 nM | 934 nM | 277 nM | 267 nM |
| UUGGGUUUGUGAAGGAGCGGGUAUGUUUUCUAGUGGAUCCUAACAUGAGGAUCACCCAUGUCCCAGGUAGGUCGCGCGGGUUUGG [12.U] | 64.6 nM | 227 nM | 99.8 nM | 117 nM | 81.8 nM |
| AAGGCACGAGACAUGAGGAUCACCCAUGUUCGAGGACCGGUACGGCCGCCACUCGGUGGACUCAUGGUAAAGCCGGUGAGCCAAA [AK 1.1 SS Trypt (A)] | 18 nM | 25.2 nM | 22.5 nM |  |  |

| Sequence | apparent KD of MS2 coat protein (input ligand: arginine 13.2 mM) | apparent KD of MS2 coat protein [1] | apparent KD of MS2 coat protein [2] | apparent KD of MS2 coat protein (input ligand: none) | apparent KD of MS2 coat protein [3] |
| --- | --- | --- | --- | --- | --- |
| ACUUGGUGGUGAUCCCUGCCAAGAGGUGAUACCAGCAUCGAAAGAUGCCCUUGGCAGCACCAACAUGAGGAUCACCCAUGUAAUA [(MT)''-(M)'-(T')-(Theo)-(Ms2)_Design1/22_6] | 62.6 nM | 185 nM |  |  | 214 nM |
| UAUCCACAUGAGGAUCACCCAUGUAGGGAAGGAGCGGUGGUUUCACCAGGUAGGUCGCCUUACUGAGGAGAACCGGUGGAAUCGU [Exclusion - Arginine A (Freestyle 29)] | 23.8 nM | 61.7 nM | 105 nM | 42.1 nM | 42.6 nM |
| CAUAUAUAUUGAAGGAGCGUCGAAAAUGGGUAAACAUGAGGAUCACCCAUGUAAAGGGAACGACAGGUAGGUCGCAAUAUAUAUG [AstromonsSSArgB#4] | 115 nM | 199 nM | 177 nM | 181 nM | 146 nM |
| CGCAACCCACAUGAGGAUCACCCAUGUGAAGGAGCGGCGAAUAAGCCAGGUAGGUCGCGCAUGAAUAAAUCAUGUAGGAAGCUAA [XArg-A 8 V1] | 9.8 nM | 13.2 nM | 12.7 nM | 10.8 nM | 9.79 nM |
| UUGUUGUUUGGAAGGAGCGUGUAUGAUUUAGAACAUGAGGAUCACCCAUGUUGGAGGAUAGCACAGGUAGGUCGCCGGGUGGUGG [11.X] | 16.2 nM | 23.6 nM | 21.4 nM | 13.4 nM | 15 nM |
| UGUACCAUGUCGGCCGCCACUCAUGAUAAAUAUGAGGAUCACCCAUAUAGCGUCAAAGACGCUAUGAGGACCGGGACAUGGUACU [TryBS Zipper 2] | 40.8 nM | 50.5 nM | 50.4 nM | 41.3 nM | 14 nM |
| GGUUACUCUACGGCCGCCACUGAUUAAUUAUAAACCUGUACAUAAACAUGAGGAUCACCCAUGUACAGGACCGGGUAGUGUAACC [Tryptophan B 9] | 30.5 nM | 46.9 nM | 39.1 nM |  |  |
| UGUAUGGACUGAAGGAGCGCCUCAAAAUAGCAUGAGGAACACCCAUGCAAGGCGAAAGCCGGGCAGGUAGGUCGCAGUCCAUACU [ArgBX 3] | 21 nM | 32.2 nM | 27.2 nM | 20.3 nM | 22.6 nM |
| AGUGUUAUAACUGAUACCAGACUUGCGCUUAAACAUGAGGAUCACCCAUGUAAAAUGGUUGUCCCUUGGCAGCAGAAAAUACACA [JR_SSTheophyB_Sub006] | 53.2 nM | 98 nM |  |  | 98.4 nM |
| AUAACAUGAGGAUCACCCAUGUAGAGUGAUACCAGACUACGUAAUGUCCCUUGGCAGCACAAGUAAAGUUACGAAUAAUGAUAGA [JR_SSTheophyA_Sub002] | 113 nM | 146 nM |  |  | 137 nM |
| GCGGGACUUUCGGCCGCCACUGAGAGAGUCGUGUGAACAUGAGGAUCACCCAUGUAAUAUAUAUACAGGACCGGGAGGGUUGCGC [4.Q] | 5.64 nM | 17.2 nM | 14.7 nM | 13.4 nM | 12.8 nM |
| GGGAGGGAGGCGGCCGCCACUGAUUUUCAUAUAUAUAUAACAUGAGGAUCACCCAUGUAGAUAUACAGGACCGGGCCUUUUUUUU [aaaG] | 14.6 nM | 33.8 nM | 22.8 nM |  |  |
| GAGACAUCGGGAAGGAGCGCAUCCAAACCACACAUGAGGAUCACCCAUGUAUAAAUAUGCAUGCAGGUAGGUCGCCCGGUAUCCC [Tiisqure] | 26.5 nM | 40.2 nM | 35 nM | 27.8 nM | 28.9 nM |
| GCACCAGGUACGGAUACCAGAAUUUGCCAAUUGGGUGAACAUGAGGAUCACCCAUGUUAUUUCCCUUGGCAGCCGUACCUGGUGC [ETB NP+V+V2 #10] | 8.88 nM | 13.2 nM |  |  | 9.45 nM |
| CUCCCGUGGUCGGCCGCCACUGGAGGCCUUGCGCGACAUGAGGAUCACCCAUGUUGGCCCGGCGUCAGGACCGGGAUCGCGUGAG [#1 Same State - Tryptophan B Attempt #10 (HarryS)] | 8.86 nM | 18.8 nM | 12.2 nM | 14.4 nM | 10.1 nM |
| ACGUCUCGAAAACUCGUAGUAACAAUAGAUACCAGUAGCGAGAGUUACCCUUGGCAGCUACAUGAGGAUCACCCAUGUACGAGGA [XTheo A #27] | 19.1 nM | 26 nM |  |  | 18.1 nM |
| AUGUAAGUGGUGUCACUGUGGUCUAGUGAUACCAGUAUCGAAAGAUACCCUUGGCAGCGCUAGAACAUGAGGAUCACCCAUGUUU [#24 Exclusion-TheophyllineA] | 34.8 nM | 74.8 nM |  |  | 58.3 nM |
| GCACGACAUGAGGAUCACCCAUGUGCAGAUACCAGUAGGAUAUCCUACCCUUGGCAGCUGAGUGGAUCCGGAGGACCAUGGGUAA [Same State Theophylline A GF8] | 32.8 nM | 61.7 nM |  |  | 34.7 nM |
| ACAUGAGGAUCACCCAUGUGGCGUCUUGAUACCAGACGAGAAGUAGUCCCUUGGCAGCAAAUACAUGAGGAUCACCCAUGUAGGA [cccmullin] | 16.6 nM | 25.5 nM |  |  | 24.3 nM |
